The values that follow come from publication PMC4410396 (Acta Naturae, 2015).

Series [1] relates to T1, NC(=O)c1ccc[n+]([C@@H]2O[C@H](COP(=O)(O)OP(=O)(O)OC[C@H]3O[C@@H](n4cnc5c(N)ncnc54)[C@H](O)[C@@H]3O)[C@@H](O)[C@H]2O)c1.
T1 construct: recombinant, plasmid pPseFDH8, E. coli BL21(DE3)/pLysS; no tag mentioned; Phenyl Sepharose and Sephadex G-25
In words: purified protein. Type of series: biochemical, Pseudomonas sp. 101. Conditions: saturating formate (>15 KM), 0.1 M sodium phosphate pH 7.0, 30°C.

The test system of series [2] is T2, NC(=O)c1ccc[n+]([C@@H]2O[C@H](COP(=O)(O)OP(=O)(O)OC[C@H]3O[C@@H](n4cnc5c(N)ncnc54)[C@H](OP(=O)(O)O)[C@@H]3O)[C@@H](O)[C@H]2O)c1.
T2 construct: recombinant, plasmid pPseFDH8, E. coli BL21(DE3)/pLysS; no tag mentioned; Phenyl Sepharose and Sephadex G-25
In words: purified protein. The note with it: saturating formate (>15 KM), 0.1 M sodium phosphate pH 7.0, 30°C. Type of series: biochemical, Pseudomonas sp. 101.

Another series addresses T3, MorFDH (Moraxella sp., UniProt O08375, A199G).
T3 construct: gene fdh; recombinant, plasmid pMorFDH2, E. coli BL21(DE3)/pLysS; no tag mentioned; Phenyl Sepharose and Sephadex G-25
T3 sequence (O08375 2-402 A199G): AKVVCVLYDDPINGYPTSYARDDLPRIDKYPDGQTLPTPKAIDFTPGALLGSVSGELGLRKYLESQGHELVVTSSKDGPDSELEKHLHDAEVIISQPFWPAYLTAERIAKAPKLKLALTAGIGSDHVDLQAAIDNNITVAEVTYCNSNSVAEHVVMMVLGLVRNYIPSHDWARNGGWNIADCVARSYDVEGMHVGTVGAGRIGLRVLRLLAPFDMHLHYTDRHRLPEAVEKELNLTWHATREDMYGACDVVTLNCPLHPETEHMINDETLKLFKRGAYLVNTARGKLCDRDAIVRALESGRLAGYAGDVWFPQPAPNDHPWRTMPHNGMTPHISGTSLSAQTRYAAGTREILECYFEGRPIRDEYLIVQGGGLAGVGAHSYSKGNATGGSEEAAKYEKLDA
In words: spectrophotometric NAD(P)H formation at […] nm. Type of series: biochemical. The note with it: saturating formate (>15 KM); 0.1 M sodium phosphate pH 7.0, 30°C; read-out: KMKNAD^+.

Substrate in the series “purified protein”: NC(=O)c1ccc[n+]([C@@H]2O[C@H](COP(=O)(O)OP(=O)(O)OC[C@H]3O[C@@H](n4cnc5c(N)ncnc54)[C@H](OP(=O)(O)O)[C@@H]3O)[C@@H](O)[C@H]2O)c1
In words: purified protein. Type of series: biochemical, Pseudomonas sp. 101. Conditions: saturating formate (>15 KM), 0.1 M sodium phosphate pH 7.0, 30°C, printed with an asterisk.

As usually defined, the kcat is the number of substrate molecules converted per active site and unit of time at saturation. As for PseFDH (Pseudomonas sp. 101; D222S), in series [1], the Km came out at 710 ± 45 µM and the kcat was determined as 5.0 ± 0.3 s⁻¹.
Turning to “PseFDH (Pseudomonas sp. 101; A199G/D222S)”, the Km in series [2] stood at 280 ± 25 µM; in series [1], 540 ± 42 µM. The kcat in series [2] amounted to 1.8 ± 0.2 s⁻¹; in series [1], 5.0 ± 0.2 s⁻¹.
For `NC(=O)c1ccc[n+]([C@@H]2O[C@H](COP(=O)(O)OP(=O)(O)OC[C@H]3O[C@@H](n4cnc5c(N)ncnc54)[C@H](O)[C@@H]3O)[C@@H](O)[C@H]2O)c1` [NAD^+], the Km at MorFDH came out at 45 ± 3 µM.
For PseFDH (Pseudomonas sp. 101; A199G), the Km in series [1] turned out to be 35 ± 2 µM.

B1: PseFDH (Pseudomonas sp. 101) (protein)
chain: AKVLCVLYDDPVDGYPKTYARDDLPKIDHYPGGQTLPTPKAIDFTPGQLLGSVSGELGLRKYLESNGHTLVVTSDKDGPDSVFERELVDADVVISQPFWPAYLTPERIAKAKNLKLALTAGIGSDHVDLQSAIDRNVTVAEVTYCNSISVAEHVVMMILSLVRNYLPSHEWARKGGWNIADCVSHAYDLEAMHVGTVAAGRIGLAVLRRLAPFDVHLHYTDRHRLPESVEKELNLTWHATREDMYPVCDVVTLNCPLHPETEHMINDETLKLFKRGAYIVNTARGKLCDRDAVARALESGRLAGYAGDVWFPQPAPKDHPWRTMPYNGMTPHISGTTLTAQARYAAGTREILECFFEGRPIRDEYLIVQGGALAGTGAHSYSKGNATGGSEEAAKFKKAV
notes: recombinant, plasmid pPseFDH8, E. coli BL21(DE3)/pLysS; no tag mentioned; Phenyl Sepharose and Sephadex G-25
Take B1: the kcat in “purified protein” was 1.3 ± 0.1 s⁻¹.
